Assay results: publication PMC9400901, “Advanced Insights into Catalytic and Structural Features of the Zinc‐Dependent Alcohol Dehydrogenase from Thauera aromatica” (Chembiochem, 2022)

Experiments:
Type in all cases: biochemical, Thauera aromatica
[1] = substrate: O=C1CCCCC1Br; test: Michaelis-Menten kinetics, reduction; photometric standard assay or FDH-coupled biotransformation; details: NADH 0.25 mmol L^−1, potassium phosphate pH 6.5, room temperature, 3 % (v/v) DMSO, racemic substrate
Excerpt: (§1) Michaelis-Menten kinetics, reduction; photometric standard assay or FDH-coupled biotransformation on ThaADH

[2] = substrate: O=C1CCCCC1=O; test: as above; details: NADH 0.25 mmol L^−1, 100 mmol L^−1 potassium phosphate pH 6.5, room temperature, solubility limit reached
Excerpt: as §1

[3] = substrate: O=C1CCCCC1Cl; test: as above; details: NADH 0.25 mmol L^−1, potassium phosphate pH 6.5, room temperature, 1 % (v/v) DMSO, racemic substrate
Excerpt: as §1

[4] = substrate: NC(=O)C1=CN([C@@H]2O[C@H](COP(=O)(O)OP(=O)(O)OC[C@H]3O[C@@H](n4cnc5c(N)ncnc54)[C@H](O)[C@@H]3O)[C@@H](O)[C@H]2O)C=CC1; test: purified protein; details: reduction, co-substrate not given, standard assay pH 6.5, 40 °C, pH 6.5, varied: cofactor
[5] = substrate: NC(=O)c1ccc[n+]([C@@H]2O[C@H](COP(=O)(O)OP(=O)(O)OC[C@H]3O[C@@H](n4cnc5c(N)ncnc54)[C@H](O)[C@@H]3O)[C@@H](O)[C@H]2O)c1; test: purified protein; details: oxidation, co-substrate not given, standard assay pH 9.0, 40 °C, pH 9.0, varied: cofactor
[6] = substrate: CC1=CC(O)CCC1; test: purified protein; details: oxidation, standard assay: NAD+ 1 mmol L^−1, 100 mmol L^−1 HEPES pH 9.0, 40 °C, pH 9.0
[7] = substrate: NC(=O)c1ccc[n+]([C@@H]2C[C@H](COP(=O)(O)OP(=O)(O)OC[C@H]3O[C@@H](n4cnc5c(N)ncnc54)[C@H](O)[C@@H]3O)[C@@H](O)[C@H]2O)c1; test: purified protein; details: oxidation, co-substrate not given, standard assay pH 9.0, 40 °C, pH 9.0, varied: cofactor

B1: ThaADH (Thauera aromatica) (protein)
chain: MSSNPHRWMMTSPGAPMVRAEFEIGELSADQVVVAVAGCGVCHTDLGYYYDSVRTNHALPLALGHEISGRVVQAGANAAQWLGRAVIVPAVMPCGTCELCTSGHGTICRDQVMPGNDIQGGFASHVVVPARGLCPVDEARLAAAGLQLADVSVVADAVTTPYQAVLQAGVEPGDVAVVIGVGGVGGYAVQIANAFGASVVAIDVDPAKLEMMSKHGAALTLNAREISGRDLKKAIEAHAKANGLRLTRWKIFECSGTGAGQTSAYGLLTHGATLAVVGFTMDKVEVRLSNLMAFHARALGNWGCLPEYYPAALDLVLDKKIDLASFIERHPLDQIGEVFAAAHAHKLTRRAILTP
notes: full-length WT, recombinant in E. coli BL21(DE3), pET22b; C-terminal Strep-tag for all kinetics, N-terminal His-tag for crystals; about 40 kDa monomer, dimer in solution (89 kDa by SEC; tetramer and higher in blue native PAGE), two zinc per monomer
Km [1]: 24.1 ± 6.8 mM
Vmax [1]: 6.3 µmol/min/mg
kcat [1]: 4.62 ± 0.47 s⁻¹
kcat/Km [1]: 190 ± 70 M⁻¹ s⁻¹
Km [2]: 68.1 ± 33.8 mM
Vmax [2]: 53.3 µmol/min/mg
kcat [2]: 39.1 ± 10.1 s⁻¹
kcat/Km [2]: 570 ± 430 M⁻¹ s⁻¹
Km [3]: 33.1 ± 10.4 mM
Vmax [3]: 14.9 µmol/min/mg
kcat [3]: 10.9 ± 1.38 s⁻¹
kcat/Km [3]: 330 ± 150 M⁻¹ s⁻¹
Km [4]: 0.07 ± 0.02 mM
Vmax [4]: 9.1 µmol/min/mg
kcat [4]: 6.63 ± 0.74 s⁻¹
kcat/Km [4]: 94700 ± 37600 M⁻¹ s⁻¹
Km [5]: 1.0 ± 0.2 mM
Vmax [5]: 2.2 µmol/min/mg
kcat [5]: 1.63 ± 0.1 s⁻¹
kcat/Km [5]: 1630 ± 430 M⁻¹ s⁻¹
Km [6]: 21.6 ± 1.9 mM
Vmax [6]: 2.4 µmol/min/mg
kcat [6]: 1.77 ± 0.05 s⁻¹
kcat/Km [6]: 80 ± 10 M⁻¹ s⁻¹
Km [7]: 0.7 ± 0.1 mM
Vmax [7]: 0.9 µmol/min/mg
kcat [7]: 0.66 ± 0.04 s⁻¹
kcat/Km [7]: 940 ± 190 M⁻¹ s⁻¹
